For the data set, the target named is TM52 (TetR-MphR hybrid regulator) (synthetic chimera of TetR and MphR; …, UniProt P04483 1-52+Q9EVJ6:56-194, internal_change). In words: EMSA. For orientation: Mobility shift assays separate free from complexed probe on a gel.

The record followed here is article PMC6895282.

B1: TM52 operator fragment (hybrid tet operator, 2-bp spacer) (dsDNA)
DNA 1: GCGGTGATACTCCCTATCAGTTGATAGAGAGAGCACATCA
DNA 2: TGATGTGCTCTCTCTATCAACTGATAGGGAGTATCACCGC
For the molecule B1, the binding result is “binds”.
